Earlier results, collected in publication PMC8239185.

Key:
Glu286 = Glu286 (UniProt position 286, FFGHPEVYIIV); assay: kinetics; settings: enzyme during turnover
Glu212 = Glu212 (UniProt position 213, RTPDHEDTFFR); settings: ground state of the reaction centre (quinones oxidised)

Substance	pKa (Glu286)	pKa (Glu212)
Cytochrome c oxidase (aa3, A-type), subunit I (Rhodobacter sphaeroides (Cereibacter sphaeroides))	≈10	
Photosynthetic reaction centre (bRC), L subunit (Rhodobacter sphaeroides (Cereibacter sphaeroides))		≈10
